Tested on: peptide library, one residue held at a place counted from the Y acceptor
Assay: relative phosphorylation of the sub-library (ratio to the mean residue at this position); higher = residue favoured
Procedure, shortened: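 Biotinylated Tyr-centred peptide library mixtures, each fixing one residue at one position from −5 to +5, were incubated with purified recombinant kinases in 384-well plates for 90 min with 50 μM ATP plus γ-32P-ATP. Streptavidin membranes captured the peptides, which were rinsed and quantified by phosphorimaging and ImageQuant. At each position, intensities were divided by the sum of the 18 randomized residues (16 for the Ser/Thr-free library) and multiplied by that number. Each value is phosphorylation relative to the mean randomized residue.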

LIMK1, construct: aa285-end, human, sequence (P53667 285-647, looked up): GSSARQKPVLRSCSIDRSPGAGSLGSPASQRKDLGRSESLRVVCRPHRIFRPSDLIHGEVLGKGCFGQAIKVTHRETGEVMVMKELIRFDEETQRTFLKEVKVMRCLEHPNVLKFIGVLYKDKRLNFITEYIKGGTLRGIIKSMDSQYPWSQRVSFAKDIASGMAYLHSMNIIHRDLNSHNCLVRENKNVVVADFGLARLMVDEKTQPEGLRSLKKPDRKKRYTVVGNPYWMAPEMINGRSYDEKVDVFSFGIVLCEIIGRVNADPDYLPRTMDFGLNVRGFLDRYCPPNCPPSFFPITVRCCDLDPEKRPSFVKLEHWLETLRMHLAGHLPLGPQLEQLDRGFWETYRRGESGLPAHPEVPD
KIT, construct: aa544-end, human, sequence (P10721 544-976, looked up): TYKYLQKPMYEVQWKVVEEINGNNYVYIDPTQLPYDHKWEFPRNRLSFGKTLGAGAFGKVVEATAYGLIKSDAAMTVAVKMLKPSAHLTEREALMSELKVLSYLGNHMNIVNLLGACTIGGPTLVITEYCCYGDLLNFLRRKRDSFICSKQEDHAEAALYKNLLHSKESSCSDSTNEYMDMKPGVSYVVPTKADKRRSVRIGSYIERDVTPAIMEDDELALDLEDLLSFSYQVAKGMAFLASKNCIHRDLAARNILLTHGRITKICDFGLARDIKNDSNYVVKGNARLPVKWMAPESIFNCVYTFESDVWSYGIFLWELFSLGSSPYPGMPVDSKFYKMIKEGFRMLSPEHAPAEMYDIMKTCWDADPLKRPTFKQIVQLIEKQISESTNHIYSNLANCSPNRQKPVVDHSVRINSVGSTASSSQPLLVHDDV
LCK, construct: Full length, human, sequence (P06239 whole entry, looked up): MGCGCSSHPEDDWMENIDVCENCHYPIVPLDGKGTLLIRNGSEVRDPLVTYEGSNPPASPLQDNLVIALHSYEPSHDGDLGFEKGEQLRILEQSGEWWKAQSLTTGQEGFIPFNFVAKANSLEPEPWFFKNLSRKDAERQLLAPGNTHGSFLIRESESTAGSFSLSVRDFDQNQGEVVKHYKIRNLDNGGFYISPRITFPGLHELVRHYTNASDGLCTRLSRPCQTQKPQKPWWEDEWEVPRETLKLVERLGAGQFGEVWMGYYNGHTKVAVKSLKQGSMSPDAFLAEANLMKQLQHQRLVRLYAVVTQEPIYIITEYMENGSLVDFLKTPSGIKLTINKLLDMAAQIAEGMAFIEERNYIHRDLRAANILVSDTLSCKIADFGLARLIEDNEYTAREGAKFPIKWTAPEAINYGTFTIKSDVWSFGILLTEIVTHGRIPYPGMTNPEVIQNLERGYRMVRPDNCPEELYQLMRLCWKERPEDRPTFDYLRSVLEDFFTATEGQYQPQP

KIT, construct: aa544-end, human (from UniProt P10721)
relative phosphorylation
Details	at +1	at +2	at +3	at +4	at +5	at -1	at -2	at -3	at -4	at -5
A fixed	0.767	0.817	0.577	0.912	1.01	0.799	1.12	1.03	1.1	1.01
D fixed	0.38	0.893	0.392	0.969	0.604	1.62	1.26	1.51	1.33	1.22
E fixed	0.666	1.19	0.276	0.92	0.618	1.36	1.45	1.76	1.51	1.04
F fixed	1.99	1.1	2.08	1.13	1.9	1.06	0.614	0.837	0.973	0.976
G fixed	0.387	0.485	0.529	1.03	1.16	0.521	1.19	1.1	1.17	1.22
H fixed	1.82	0.971	0.859	1.14	0.933	1.39	0.967	0.973	0.913	1.04
I fixed	1.78	0.95	2.43	0.817	0.793	1.86	0.881	0.703	0.892	0.869
K fixed	0.694	0.803	0.588	1.05	0.596	0.494	0.669	0.754	0.806	1.03
L fixed	1.18	1.15	1.76	0.826	0.911	1.06	0.867	0.707	0.801	0.849
M fixed	1.17	1.02	1.42	0.903	0.949	0.834	0.763	0.764	0.865	0.848
N fixed	0.554	1.05	0.581	0.952	0.811	1.13	1.15	1.18	0.92	1.07
P fixed	0.495	0.925	1.1	0.96	1.48	0.883	1.26	1.07	1.12	1.13
Q fixed	1.12	1.05	0.591	1.09	0.773	0.87	1.15	1.01	1.05	0.891
R fixed	0.761	1.04	0.871	1.26	0.822	0.487	0.857	0.774	0.929	0.958
S fixed	0.649	0.88	0.53	0.99	0.904	0.644	1.14	1.09	0.934	0.983
T fixed	0.834	0.943	0.706	0.87	0.953	0.952	1.08	1.03	0.834	0.985
V fixed	1.65	1.02	1.65	0.868	0.776	1.37	0.909	0.756	0.775	0.797
W fixed	1.11	1.71	1.07	1.32	2.01	0.667	0.676	0.95	1.09	1.1
pThr fixed	0.919	1.81	0.344	0.573	0.504	1.43	1.17	1.69	1.35	1.26
pTyr fixed	2.18	2	0.413	1.16	0.73	4.18	1.59	1.89	1.48	1.4

LCK, construct: Full length, human (from UniProt P06239)
relative phosphorylation
Details	at +1	at +2	at +3	at +4	at +5	at -1	at -2	at -3	at -4	at -5
A fixed	1.69	1.08	0.69	0.928	1.14	0.73	1.02	0.875	1.08	1.06
D fixed	1.03	0.616	0.245	0.484	0.691	0.877	1.4	1.77	1.4	1.28
E fixed	1.58	1.07	0.211	0.557	0.532	1.22	1.68	2.02	1.63	1.13
F fixed	0.615	0.776	1.65	0.931	1.28	1.06	0.572	0.895	0.822	0.96
G fixed	2.95	0.934	0.904	1.18	1.14	0.416	1.35	1.1	1.25	1.17
H fixed	0.786	0.711	1.06	1.02	0.844	0.757	0.99	1.01	0.975	0.962
I fixed	0.738	0.932	1.92	0.85	0.639	2.81	0.663	0.549	0.792	0.836
K fixed	0.271	0.936	0.752	1.66	1.07	0.308	0.641	0.562	0.665	0.852
L fixed	0.686	0.754	1.67	0.887	0.942	1.93	0.796	0.731	0.921	0.866
M fixed	1.37	0.795	0.932	1.03	0.91	0.894	0.726	0.73	0.792	0.878
N fixed	0.54	0.934	0.429	0.801	0.92	0.431	1.25	1.42	1.11	1.24
P fixed	0.225	1.33	0.84	1.07	1.31	0.833	1.32	1.01	1.2	1.23
Q fixed	0.979	0.954	0.45	1	0.937	0.538	1.2	1.01	1.19	1.15
R fixed	0.438	1.2	1.55	1.69	1.34	0.238	0.696	0.637	0.82	0.98
S fixed	1.11	1.31	0.651	0.911	1.28	0.405	1.22	0.982	0.885	0.897
T fixed	0.821	1.36	0.697	0.849	0.968	1.32	0.982	0.892	0.735	0.841
V fixed	0.868	1.2	1.33	0.846	0.89	2.65	0.749	0.693	0.749	0.703
W fixed	1.3	1.11	2.02	1.3	1.16	0.584	0.748	1.11	0.989	0.971
pThr fixed	0.786	1.27	0.195	0.27	0.448	3.03	1.47	1.18	1.13	1.17
pTyr fixed	1.22	1.24	0.303	0.289	0.434	1.21	1.16	1.59	1.64	0.861

LIMK1, construct: aa285-end, human (from UniProt P53667)
relative phosphorylation
Details	at +1	at +2	at +3	at +4	at +5	at -1	at -2	at -3	at -4	at -5
A fixed	0.862	0.869	0.944	1.08	0.821	0.957	0.937	0.905	1.05	0.934
D fixed	0.776	0.662	0.6	0.613	0.56	0.811	0.735	0.778	0.812	0.737
E fixed	0.728	0.669	0.66	0.544	0.532	0.672	0.689	0.68	0.763	0.813
F fixed	0.879	1.2	1.21	1.23	1.18	0.849	1.08	1.21	1.02	1.1
G fixed	1.22	0.739	0.954	0.989	0.991	1.31	1.02	1.04	1.08	1.02
H fixed	1.06	1.07	1.11	1.1	1.06	1.06	1.02	0.955	0.953	1.09
I fixed	0.769	0.852	0.813	0.902	0.748	0.753	0.853	0.667	0.769	0.946
K fixed	1.35	1.49	1.4	1.37	1.46	1.28	1.33	1.16	1.3	1.14
L fixed	0.738	0.856	0.829	1	0.825	0.782	0.822	0.865	0.833	0.876
M fixed	0.802	0.926	0.996	0.973	0.836	0.793	0.833	0.801	0.837	0.843
N fixed	1.09	0.92	0.945	0.797	0.838	1.01	1.26	1.29	0.885	0.902
P fixed	1.11	0.849	0.97	0.87	0.89	1.12	1.09	1.02	1.06	0.935
Q fixed	0.961	0.921	0.865	0.74	0.849	0.888	0.846	1.13	1	0.858
R fixed	1.6	1.63	1.39	1.24	1.43	1.53	1.31	1.42	1.41	1.34
V fixed	0.713	0.979	0.782	0.907	0.754	0.81	0.86	0.819	0.807	0.837
W fixed	1.34	1.37	1.54	1.64	2.22	1.38	1.31	1.26	1.42	1.62
pThr fixed	0.753	0.513	0.519	0.596	0.409	0.704	0.664	0.635	0.96	0.703
pTyr fixed	0.761	0.655	0.689	0.61	0.518	1.61	0.887	1.34	0.667	0.744
